Results reported in patent publication US20140193432A1 (LIVTECH, published 2014).

T1: recombinant protein of the hDlk-1 extracellular region (hDlk-1-His) (human, UniProt P80370 24-303)
T1 construct: not shown: His tag
T1 sequence: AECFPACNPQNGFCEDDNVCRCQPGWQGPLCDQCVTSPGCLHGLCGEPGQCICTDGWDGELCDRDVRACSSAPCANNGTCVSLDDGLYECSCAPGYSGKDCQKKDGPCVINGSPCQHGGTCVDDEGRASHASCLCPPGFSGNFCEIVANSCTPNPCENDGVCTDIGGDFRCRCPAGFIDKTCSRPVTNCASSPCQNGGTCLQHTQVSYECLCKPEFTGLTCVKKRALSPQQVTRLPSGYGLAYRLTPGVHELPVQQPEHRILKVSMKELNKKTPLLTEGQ


Experiments:
[1] = molecular target: T1, recombinant protein of the hDlk-1 …; assay: ELISA third format: hDlk-1-His coated at 0.05 µg/ml, purified antibodies
Description: As a third format of ELISA, hDlk-1-His to be coated on a 96-well plate was diluted to a concentration of 1/10, and 0.05 μg/ml hDlk-1-His was then added in an amount of 100 μl/well to the 96-well plate, followed by coating at 4° C. overnight, so as to produce an ELISA plate coated with a low concentration of hDlk-1-His.

[2] = molecular target: T1, recombinant protein of the hDlk-1 …; assay: ELISA second format: hDlk-1-His coated at 0.5 µg/ml, antibody titrated from 5 µg/ml
Description: As a second format of ELISA, hDlk-1-His, which had been diluted with PBS to a concentration of 0.5 μg/ml, was added in an amount of 100 μl/well to a 96-well plate, followed by coating at 4° C. overnight. The plate was washed with a washing buffer, and it was then blocked with a blocking buffer. Thereafter, the plate was washed with a washing buffer again. […] Thereafter, a color reaction was carried out by the same method as described above.

Row | Binder | EC50 [1] [µg/mL] | EC50 [2] [µg/mL]
1 | humanized BA-1-3D IgG1/κ antibody (HuBA-1-3D-1) (antibody, V domains shown) VH: QVQLVQSGAEVKKPGASVKVSCKASGYTFTDYAMHWVRQAPGQGLEWIGVISTYYGNTNYNQKFKGKATMTVDTSTSTAYMELRSLRSDDTAVYYCARGGLREYYYAMDYWGQGTMVTVSS VL: DIVMTQSPDSLAVSLGERATINCKSSQSLLNSSNQKNYLAWYQQKPGQPPKLLVYFASTRESGVPDRFSGSGSGTDFTLTISSLQAEDVAVYYCQQHYSTPPTFGQGTKLEIKR |  | 0.148
2 | HuBA-1-3D-1-A24G/T73K (antibody, human IgG1, kappa, V domains shown, human IgG1/κ; also called A24G/T73K mutant; HuBA-1-3D-A24G/T73K) VH: QVQLVQSGAEVKKPGASVKVSCKGSGYTFTDYAMHWVRQAPGQGLEWIGVISTYYGNTNYNQKFKGKATMTVDKSTSTAYMELRSLRSDDTAVYYCARGGLREYYYAMDYWGQGTMVTVSS VL: DIVMTQSPDSLAVSLGERATINCKSSQSLLNSSNQKNYLAWYQQKPGQPPKLLVYFASTRESGVPDRFSGSGSGTDFTLTISSLQAEDVAVYYCQQHYSTPPTFGQGTKLEIKR | 0.0355 | 

Further lines, results first:

Row | EC50 [1] [µg/mL] | EC50 [2] [µg/mL] | Binder
3 | 0.0254 | 0.116 | mouse-human chimeric BA-1-3D IgG1/κ antibody (ChBA-1-3D) (antibody, V domains shown) VH: QVQLQQSGPELVRPGVSVKISCKGSGYTFTDYAMHWVKQSHAKSLEWIGVISTYYGNTNYNQKFKGKATMTVDKSSSTAYMELARLTSEDSAIYYCARGGLREYYYAMDYWGQGTSVTVSS VL: not shown
4 |  | 0.154 | humanized BA-1-3D IgG1/κ antibody (HuBA-1-3D-2) (antibody, V domains shown) VH: QVQLVQSGAEVKKPGASVKVSCKASGYTFTDYAMHWVRQAPGQGLEWIGVISTYYGNTNYNQKFKGRATMTVDTSTSTAYMELRSLRSDDTAVYYCARGGLREYYYAMDYWGQGTMVTVSS VL: DIVMTQSPDSLAVSLGERATINCKSSQSLLNSSNQKNYLAWYQQKPGQPPKLLVYFASTRESGVPDRFSGSGSGTDFTLTISSLQAEDVAVYYCQQHYSTPPTFGQGTKLEIKR
